Results from US20060024313A1, “Agents that disrupt dimer formation in DPP-IV family of prolyl dipeptidases” (priority 2004, published 2006).
Values joined by “and” are separate entries in the source; they are usually repeats but may differ in a detail not shown here. Identical values can stand only once. Marks after values point to notes of the source that are not given here.

B1: H750A: DPP-IV mutant, H750 mutated to Ala; mixture of dimer and monomer (protein)
chain: SRKTYTLTDYLKNTYRLKLYSLRWISDHEYLYKQENNILVFNAEYGNSSVFLENSTFDEFGHSINDYSISPDGQFILLEYNYVKQWRHSYTASYDIYDLNKRQLITEERIPNNTQWVTWSPVGHKLAYVWNNDIYVKIEPNLPSYRITWTGKEDIIYNGITDWVYEEEVFSAYSALWWSPNGTFLAYAQFNDTEVPLIEYSFYSDESLQYPKTVRVPYPKAGAVNPTVKFFVVNTDSLSSVTNATSIQITAPASMLIGDHYLCDVTWATQERISLQWLRRIQNYSVMDICDYDESSGRWNCLVARQHIEMSTTGWVGRFRPSEPHFTLDGNSFYKIISNEEGYRHICYFQIDKKDCTFITKGTWEVIGIEALTSDYLYYISNEYKGMPGGRNLYKIQLSDYTKVTCLSCELNPERCQYYSVSFSKEAKYYQLRCSGPGLPLYTLHSSVNDKGLRVLEDNSALDKMLQNVQMPSKKLDFIILNETKFWYQMILPPHFDKSKKYPLLLDVYAGPCSQKADTVFRLNWATYLASTENIIVASFDGRGSGYQGDKIMHAINRRLGTFEVEDQIEAARQFSKMGFVDNKRIAIWGWSYGGYVTSMVLGSGSGVFKCGIAVAPVSRWEYYDSVYTERYMGLPTPEDNLDHYRNSTVMSRAENFKQVEYLLIHGTADDNVHFQQSAQISKALVDVGVDFQAMWYTDEDHGIASSTAHQAIYTHMSHFIKQCFSLP
B2: H750A dimer: dimer of H750A DPP-IV separated by gel filtration (protein)
chain: B1 chain

Columns and labels:
[1] = Analytical ultracentrifugation (AUC): sedimentation velocity and equilibrium; format: physicochemical; settings: for Stokes' radius (Rs): sedimentation velocity experiments
Method: Buffer was changed using an Amicon device and DPP-IV proteins were allowed to equilibrate for at least four hours or longer as indicated in the text at 25° C. after buffer changes. The sedimentation coefficients (S) of the enzyme were estimated by a Beckman-Coulter XL-A analytical ultracentrifuge with an An60Ti rotor as described (25). Sedimentation velocity analysis was performed at 40,000 rpm at 25° C. with standard double sector aluminum centerpieces. The UV absorption of the cells was scanned every 5 min for 4 hours. Sedimentation equilibrium was performed at 20° C. with six-channel open centerpieces and then centrifuged at 12,000 rpm for 12 hours. The data from both sedimentation velocity and sedimentation experiments were analyzed with the SedFit version 8.7 program to obtain molecular weights and sedimentation coefficients (25). Sednterp version 1.07 program is used to obtain solvent density, viscosity, Stokes' radius (Rs) and anhydrous frictional ratio (f/fo).

[2] = system: DPP-IV; experiment: Dilution experiment (specific activity after two-fold dilutions); format: biochemical, human; settings: 200 nM to 1.6 nM enzyme, 16 hours at 25° C., 10 uM H-Gly-Pro-pNA
Method: Enzyme concentrations ranging from 200 nM to 1.6 nM were used in the dilution experiments. The experiments were carried out with consecutive two-fold dilutions in PBS containing 0.1% BSA and 1 mM DTT (dithiothreitol). The solution after dilution was incubated at 25° C. for 16 hours to ensure attainment of dimer-monomer equilibrium. The reaction was initiated by adding the substrate H-Gly-Pro-pNA at a final concentration of 10 uM for both wild type DPP-IV and H750A proteins. The initial rate of the reaction was recorded and converted to specific activity.

[3] = system: DPP-IV; experiment: Kinetic constant measurements with chromogenic substrate H-Gly-Pro-pNA; format: biochemical, human; settings: for Km / kcat: substrate H-Gly-Pro-pNA
Method: To measure the kinetic parameters, the chromogenic substrate H-Gly-Pro-pNA was utilized to initiate the reaction, which was monitored at OD 405 nm as a function of time (21). […] The initial rate was measured with less than 10% substrate depletion for the first 10 to 300 seconds. The steady-state parameters, kcat and Km, were determined from initial velocity measurements at 0.5 to 5 Km of the substrate concentrations. Lineweaver-Burk plots were analyzed using non-linear regression of the Michaelis-Menten equation. Correlation coefficients better than 0.99 were obtained throughout.

[4] = Size exclusion chromatography (gel filtration, Superdex 200); format: physicochemical; settings: gel filtration experiments; PBS buffer
Method: Chemical crosslinking in intact cells was conducted as described (24). Size exclusion chromatography was conducted at 4° C. Purified proteins (0.5 ml at a concentration of 5 uM) were applied to a Superdex 200 10/30 column (10×300-310 mm) pre-equilibrated with PBS. The sample was eluted with the same buffer at 0.3 ml/min and 0.25 ml fractions were collected. The Superdex 200 10/30 column was calibrated with the Stokes Radii of ferritin (6.1 nm), catalase (5.22 nm), aldolase (4.81 nm), albumin (3.55 nm), ovalbumin (3.05 nm) and chymotrypsinogen A (2.09 nm) from Amersham-Pharmacia.

Molecule	quaternary structure (subunit composition) by sedimentation velocity ([1]; High salt buffer (0.5 M sodium sulfate))	quaternary structure (monomer/dimer) by AUC ([1]; PBS buffer where stated)	subunit composition of separated dimer and monomer after incubation ([1]; room temperature for up to 48 hours, after gel filtration)	specific activity on dilution [2]	Km ([3]; High salt buffer) [µM]	kcat ([3]; High salt buffer) [s⁻¹]	Km ([3]; PBS buffer) [µM]	kcat ([3]; PBS buffer) [s⁻¹]	decrease in kcat ([3]; compared with wild type rDPP-IV)	AUC analysis or catalytic activities in low salt buffer ([3]; low salt buffer compared to PBS buffer (data not shown))	Stokes' radius (Rs) [4]	Sedimentation coefficient (s20, w) ([1]; High salt buffer) [S]	Anhydrous frictional ratio (f/fo) ([1]; PBS buffer)	Sedimentation coefficient (s20, w) ([1]; PBS buffer)	Stokes' radius (Rs) ([1]; High salt buffer)	Stokes' radius (Rs) ([1]; PBS buffer)
B1	mixture of dimer-monomer	mixture of DPP-IV dimer and monomer	maintain their subunit compositions	constant	125	16	77	31	about 3 fold	no differences	5.7 nm and 4.6 nm	–	–	–	–	–
B2	–	–	–	–	–	–	79	73	–	–	5.7^a nm	5.0	1.4	8.5 S and 8.4 S	4.9^b nm	5.1^b nm
